Reference: US20100041597A1, “PEPTIDES TARGETED TO PROTEIN KINASE C ISOFORMS AND USES THEREOF” (priority 2005, published 2010)
“Also recorded” adds a separate entry of the source.

Assays:
PKC-βI = PKC-βI (Homo sapiens, UniProt P05771); test: ELISA-based competitive binding assay with purified PKC isoform; design: key to Affinity for PKC isoform βI: —: no detectable affinity; Low to very low affinity at 10X or 20X or both PRE concentrations in at least one cell line in the cell extract assay; Low affinity in purified isoform assay.; Moderate affinity at 10X or 20X or both PRE concentrations in at least one cell line in the cell extract assay.; High affinity at 10X or 20X or both PRE concentrations in at least one cell line in the cell extract assay; High affinity in purified isoform assay; details: for inhibition at 50 µM / inhibition at 100 µM / inhibition at 200 µM / calculated binding capacity (100-% n) after subtraction of the DMSO apparent binding capacity: purified PKC-βI; for inhibition at 50 µM / inhibition at 100 µM / inhibition at 200 µM: read-out: calculated binding capacity (100-% n) after subtraction of the DMSO apparent binding capacity; for Affinity for PKC isoform βI: Purified isoform, Table 20; for targeting of PKC-βI: purified isoform, Tables 14-19
Experimental: (§1) Peptides PRE 1, 2, 3, 4, 5, 6, 7, 8, 9, 10, 11, 12 and 13 (see Table 3) were tested for their ability to interfere with binding of PKC isoform-specific antibodies to their target PKC isoforms using a competitive binding assay and purified PKC isoforms.
(§2) Procedure: Competitive binding was assessed using a 96 well plate ELISA-based assay as described below.
(§3) Greiner 96 well ELISA plates were coated with the appropriate PKC isoform diluted in PBSN (PBS with Calcium/Magnesium+0.05% Sodium azide w/w). 50 μL/well at 250 ng/mL was used. Control wells contained PBSN only. Plates were incubated overnight at 4° C.
(§4) The plates were washed 3 times with 200 μL of dH2O per well, then 100 μL of blocking solution was added per well and the plate incubated for 1 h at 37° C. The washing steps with dH2O were repeated and 50 μL of the appropriate PRE solution (PRE stock solution [20 mM in DMSO] diluted in PBSN) was added and the plate incubated for 1 h at room temperature.
(§5) After incubation, 5 μL of 1.1:400 anti-PKC (isoform specific antibody) was added per well (to provide a final concentration of 1:4000). For PKC-epsilon, 1.1:800 dilution was used and for PKC-zeta a 1.1:100 dilution was used due to high and low binding affinity, respectively. The plates were then incubated 1 h at room temperature, followed by washing with dH2O as described above.
(§6) 50 μL of 1:1000 dilution of Alkaline Phosphatase (AP) conjugated antibody (anti-rabbit for all except zeta, which was anti-goat) was then added and the plate incubated for 1 h at room temperature. Washing with dH2O was then repeated. Finally, 100 μL of pNPP solution in pNPP buffer (2 mM MgCl2, 100 mM Sodium bicarbonate in water, pH 9.8) was added to all wells and incubated for 8 minutes for α, βI, βII ε, and ζ, or for 15-20 mins for […] (until sufficient coloration is observed). The reaction was stopped by addition of Stop solution (2N NaOH) and the absorbance at 405 nm was read on a Galaxy Plate reader.
(§7) Controls were PKC without PRE; blank controls, and controls containing the final concentrations of DMSO used for solubilizing the PREs. The non-specific binding capacity related to DMSO was also measured.
(§8) The antibodies used were as follows: anti-PKC α (Cat. No. SC-208); anti-PKC βI (Cat. No. SC-209); anti-PKC βII (Cat. No. SC-210); anti-PKC δ (Cat. No. SC-213); anti-PKC ε (Cat. No. SC-214); anti-PKC ζ (Cat. No. SC-216-G) (all from Santa Cruz Biotechnology, Inc.). The AP-conjugated antibodies were obtained from Jackson Immuno Research Laboratories (West Grove, Pa.).
(§9) Calculations: The OD values measured at 405 nm represent the free PKC coated per well.
(§10) OD405 PKC alone−Blank OD405 of each sample=OD405 coated isoform
(§11) (OD405 of sample X/OD405 coated isoform)×100=% n that represents the percentage of X binding compared to control.
(§12) 100-% n measures the relative binding capacity of X towards the tested isoform.
(§13) The apparent binding capacity of the DMSO samples was then subtracted from X binding capacity.
(§14) All measurements were made in triplicate and the values in the table represent the averaged calculated binding capacity values after subtraction of the DMSO apparent binding capacity (averaged from 12 values, respectively 10.80, 11.20 and 16.40 corresponding to the concentrations of DMSO used to dilute the […] at 200, 100 and 50 μM respectively). The results allow for quantitative comparison of the binding capacity of each PRE towards an individual isoform within each table, but not among isoforms due to differences in sensitivity of the specific antibodies toward the secondary antibody. This applies particularly to PKC-delta. As noted above, the colour development duration was increased 2-3 times and, as a result, the OD405 measurements may be overestimated for this isoform.

PKC-δ = PKC-δ (Homo sapiens, UniProt Q05655); test: as above; design: key to Affinity for PKC isoform δ: —: no detectable affinity; Low to very low affinity at 10X or 20X or both PRE concentrations in at least one cell line in the cell extract assay; Low affinity in purified isoform assay.; Moderate affinity at 10X or 20X or both PRE concentrations in at least one cell line in the cell extract assay.; High affinity at 10X or 20X or both PRE concentrations in at least one cell line in the cell extract assay; High affinity in purified isoform assay; details: for inhibition at 50 µM / inhibition at 100 µM / inhibition at 200 µM / calculated binding capacity (100-% n) after subtraction of the DMSO apparent binding capacity: purified PKC-δ, may be overestimated (longer colour development); for inhibition at 50 µM / inhibition at 100 µM / inhibition at 200 µM: read-out: calculated binding capacity (100-% n) after subtraction of the DMSO apparent binding capacity; for Affinity for PKC isoform δ: Purified isoform, Table 20; for targeting of / affinity for PKC-δ: purified isoform, Tables 14-19
Experimental: as §1, §2, §3, §4, §5, §6, §7, §8, §9, §10, §11, §12, §13, §14

Chain of PKC-βI (P05771 whole entry, canonical isoform): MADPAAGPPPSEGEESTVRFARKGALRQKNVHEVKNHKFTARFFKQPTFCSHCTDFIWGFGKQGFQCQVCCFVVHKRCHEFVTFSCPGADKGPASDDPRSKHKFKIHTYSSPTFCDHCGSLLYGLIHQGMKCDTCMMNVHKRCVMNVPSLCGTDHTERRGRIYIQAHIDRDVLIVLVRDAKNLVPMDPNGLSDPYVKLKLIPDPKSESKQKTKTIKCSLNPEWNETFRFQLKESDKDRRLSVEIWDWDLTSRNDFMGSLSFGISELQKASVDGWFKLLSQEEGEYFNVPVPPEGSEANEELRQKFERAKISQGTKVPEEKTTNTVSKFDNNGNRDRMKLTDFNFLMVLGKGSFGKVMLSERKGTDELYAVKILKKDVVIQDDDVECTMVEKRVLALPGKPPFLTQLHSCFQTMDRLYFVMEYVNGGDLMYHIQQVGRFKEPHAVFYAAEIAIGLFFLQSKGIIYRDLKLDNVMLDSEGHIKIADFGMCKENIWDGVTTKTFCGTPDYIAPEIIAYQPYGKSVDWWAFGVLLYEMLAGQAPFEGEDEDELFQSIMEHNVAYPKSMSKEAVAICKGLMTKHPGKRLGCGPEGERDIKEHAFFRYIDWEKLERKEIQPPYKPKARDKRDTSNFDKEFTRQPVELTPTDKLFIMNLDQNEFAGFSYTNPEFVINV
Chain of PKC-δ (Q05655 whole entry, canonical isoform): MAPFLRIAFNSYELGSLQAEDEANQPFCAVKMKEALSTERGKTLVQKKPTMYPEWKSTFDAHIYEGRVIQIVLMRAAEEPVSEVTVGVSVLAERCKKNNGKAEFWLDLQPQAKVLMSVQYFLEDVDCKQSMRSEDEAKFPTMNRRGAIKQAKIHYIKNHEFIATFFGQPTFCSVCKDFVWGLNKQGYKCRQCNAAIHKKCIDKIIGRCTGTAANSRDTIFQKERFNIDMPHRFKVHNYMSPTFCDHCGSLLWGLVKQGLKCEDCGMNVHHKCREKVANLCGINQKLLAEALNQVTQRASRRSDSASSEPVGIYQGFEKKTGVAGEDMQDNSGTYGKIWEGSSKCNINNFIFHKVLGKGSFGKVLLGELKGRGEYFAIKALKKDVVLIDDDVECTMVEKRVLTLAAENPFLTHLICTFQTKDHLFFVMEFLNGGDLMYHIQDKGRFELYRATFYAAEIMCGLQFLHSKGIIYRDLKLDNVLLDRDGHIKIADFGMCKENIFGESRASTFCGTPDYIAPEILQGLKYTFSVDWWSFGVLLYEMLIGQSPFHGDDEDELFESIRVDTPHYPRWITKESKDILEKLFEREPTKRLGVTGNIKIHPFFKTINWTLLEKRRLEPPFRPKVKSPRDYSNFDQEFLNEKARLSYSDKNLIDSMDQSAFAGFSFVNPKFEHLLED

Substance: Ac-AKGIQEVKGGDAQNLIGISI-NH2 [PRE 3]
- inhibition at 50 µM (PKC-βI; PRE 50 μM): 26%
- inhibition at 100 µM (PKC-βI; PRE 100 μM): 22.5%
- inhibition at 200 µM (PKC-βI; PRE 200 μM): 23%
- Affinity for PKC isoform βI (PKC-βI): H
- targeting of PKC-βI (PKC-βI): targeted most strongly
- inhibition at 50 µM (PKC-δ; PRE 50 μM): 48.3%
- inhibition at 100 µM (PKC-δ; PRE 100 μM): 56%
- inhibition at 200 µM (PKC-δ; PRE 200 μM): 57%
- Affinity for PKC isoform δ (PKC-δ): H
- targeting of / affinity for PKC-δ (PKC-δ): targeted most strongly

Substance: Ac-AKGIQEVKGGKDAQNLIGISI-NH2 [PRE 5]
- inhibition at 50 µM (PKC-βI; PRE 50 μM): 0%
- inhibition at 100 µM (PKC-βI; PRE 100 μM): 0%
- inhibition at 200 µM (PKC-βI; PRE 200 μM): 0%
- Affinity for PKC isoform βI (PKC-βI): —
- inhibition at 50 µM (PKC-δ; PRE 50 μM): 0.2%
- inhibition at 100 µM (PKC-δ; PRE 100 μM): 0%
- inhibition at 200 µM (PKC-δ; PRE 200 μM): 4.31%
- Affinity for PKC isoform δ (PKC-δ): L

Substance: Ac-ISIGILNQADK-NH2 [PRE 10]
- calculated binding capacity (100-% n) after subtraction of the DMSO apparent binding capacity (PKC-βI; PRE 50 μM): 3.77
- calculated binding capacity (100-% n) after subtraction of the DMSO apparent binding capacity (PKC-βI; PRE 100 μM): 4.35
- Affinity for PKC isoform βI (PKC-βI): —
- calculated binding capacity (100-% n) after subtraction of the DMSO apparent binding capacity (PKC-δ; PRE 200 μM): 9.47
- Affinity for PKC isoform δ (PKC-δ): —

Substance: Ac-ISIGILQNADK-NH2 [PRE 7]
- Affinity for PKC isoform βI (PKC-βI): —
- Affinity for PKC isoform δ (PKC-δ): —

Substance: Ac-KDANQLIGISI-NH2 [PRE 6]
- Affinity for PKC isoform βI (PKC-βI): L
- Affinity for PKC isoform δ (PKC-δ): L

Substance: Ac-KDAQNLI-NH2 [PRE 12]
- Affinity for PKC isoform βI (PKC-βI): —
- Affinity for PKC isoform δ (PKC-δ): L

Substance: Ac-KDAQNLIGISI-NH2 [PRE 4, Ac-KDAQNLIGISI-NH2]
- inhibition at 50 µM (PKC-βI; PRE 50 μM): 6.02%
- inhibition at 100 µM (PKC-βI; PRE 100 μM): 15.7%
- inhibition at 200 µM (PKC-βI; PRE 200 μM): 7.46%
- Affinity for PKC isoform βI (PKC-βI): L
- inhibition at 50 µM (PKC-δ; PRE 50 μM): 29.2%
- inhibition at 100 µM (PKC-δ; PRE 100 μM): 30.7%
- inhibition at 200 µM (PKC-δ; PRE 200 μM): 17.3%
- Affinity for PKC isoform δ (PKC-δ): H
- targeting of / affinity for PKC-δ (PKC-δ): targeted most strongly; also recorded: showed an affinity for PKC-6

Substance: Ac-RDAQNLI-NH2 [PRE 13]
- Affinity for PKC isoform βI (PKC-βI): —
- Affinity for PKC isoform δ (PKC-δ): L

Substance: Ac-RDAQNLIGISI-NH2 [PRE 11]
- calculated binding capacity (100-% n) after subtraction of the DMSO apparent binding capacity (PKC-βI; PRE 50 μM): 9.86
- calculated binding capacity (100-% n) after subtraction of the DMSO apparent binding capacity (PKC-βI; PRE 100 μM): 14.23
- calculated binding capacity (100-% n) after subtraction of the DMSO apparent binding capacity (PKC-βI; PRE 200 μM): 12.5
- Affinity for PKC isoform βI (PKC-βI): —
- Affinity for PKC isoform δ (PKC-δ): H
- targeting of / affinity for PKC-δ (PKC-δ): targeted most strongly

Substance: Ac-isigilgnadk-NH2 [PRE 9]
- calculated binding capacity (100-% n) after subtraction of the DMSO apparent binding capacity (PKC-βI; PRE 50 μM): 11.53
- calculated binding capacity (100-% n) after subtraction of the DMSO apparent binding capacity (PKC-βI; PRE 100 μM): 8.82
- calculated binding capacity (100-% n) after subtraction of the DMSO apparent binding capacity (PKC-βI; PRE 200 μM): 5.72
- Affinity for PKC isoform βI (PKC-βI): L
- calculated binding capacity (100-% n) after subtraction of the DMSO apparent binding capacity (PKC-δ; PRE 50 μM): 16.23
- calculated binding capacity (100-% n) after subtraction of the DMSO apparent binding capacity (PKC-δ; PRE 100 μM): 19.27
- calculated binding capacity (100-% n) after subtraction of the DMSO apparent binding capacity (PKC-δ; PRE 200 μM): 9.95
- Affinity for PKC isoform δ (PKC-δ): L

Substance: ILEDKGGDAQNLIGISI [PRE 8]
- Affinity for PKC isoform βI (PKC-βI): —
- Affinity for PKC isoform δ (PKC-δ): —

Substance: RRKKGGKDFVVKR [PRE 1]
- Affinity for PKC isoform βI (PKC-βI): H
- targeting of PKC-βI (PKC-βI): targeted most strongly
- Affinity for PKC isoform δ (PKC-δ): H
- targeting of / affinity for PKC-δ (PKC-δ): targeted most strongly
